In US20140080757A1 (ZEALAND PHARMA A S, published 2014):
Numbered stars: 1 amine (or outer) side, 2 acyl side, 3 side chain; on linkers, the order of the positions; unused ones are H or OH. Square brackets hold non-standard residues; d marks the D form. Side chains are listed from the residue outwards. * marks the point of attachment. γGlu = O=C(O)[C@H](CCC(=O)[*:2])N[*:1]; Palmitoyl = CCCCCCCCCCCCCCCC(=O)*; Aib = CC(C)(N)C(=O)O

T1: endogenous GLP-1 receptor of a murine insulinoma cell line (murine, UniProt O35659 22-463)
T1 sequence (looked up): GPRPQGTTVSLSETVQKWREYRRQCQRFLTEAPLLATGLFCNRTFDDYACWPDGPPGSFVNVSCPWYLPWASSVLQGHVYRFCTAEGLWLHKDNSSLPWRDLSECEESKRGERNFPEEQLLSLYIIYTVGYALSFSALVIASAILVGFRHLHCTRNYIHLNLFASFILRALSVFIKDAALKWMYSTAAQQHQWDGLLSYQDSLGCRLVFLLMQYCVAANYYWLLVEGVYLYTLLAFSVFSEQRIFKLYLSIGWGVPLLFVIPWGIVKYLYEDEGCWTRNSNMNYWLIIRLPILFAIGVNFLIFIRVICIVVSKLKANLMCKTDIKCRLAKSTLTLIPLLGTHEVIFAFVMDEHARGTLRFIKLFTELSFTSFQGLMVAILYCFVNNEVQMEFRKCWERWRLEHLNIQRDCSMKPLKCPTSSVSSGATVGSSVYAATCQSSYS


Key:
Experiment in all cases: cell-based or functional assay
[1] = biological target: T1, endogenous GLP-1 receptor of a murine …
[2] = biological target: human glucagon receptor (Glucagon-R) (human, UniProt P47871 26-477)
human glucagon receptor (Glucagon-R), sequence (P47871 26-477): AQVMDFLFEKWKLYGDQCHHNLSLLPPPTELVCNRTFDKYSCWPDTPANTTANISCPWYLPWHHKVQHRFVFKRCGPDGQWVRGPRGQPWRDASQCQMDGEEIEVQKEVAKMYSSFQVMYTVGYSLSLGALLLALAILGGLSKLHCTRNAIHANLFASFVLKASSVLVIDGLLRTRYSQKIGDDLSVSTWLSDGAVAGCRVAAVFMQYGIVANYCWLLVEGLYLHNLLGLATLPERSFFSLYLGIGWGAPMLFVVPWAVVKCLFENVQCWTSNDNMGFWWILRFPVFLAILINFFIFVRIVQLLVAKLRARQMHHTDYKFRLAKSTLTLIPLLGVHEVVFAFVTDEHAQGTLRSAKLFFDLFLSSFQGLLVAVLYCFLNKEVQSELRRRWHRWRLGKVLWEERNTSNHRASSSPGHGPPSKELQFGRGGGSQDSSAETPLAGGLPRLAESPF

[3] = biological target: human glucagon-like peptide 1 receptor (GLP-1R) (human, UniProt P43220 24-463)
[4] = biological target: endogenous glucagon receptor of primary rat hepatocytes (rat, UniProt P30082 27-485)
endogenous glucagon receptor of primary rat hepatocytes, sequence (P30082 27-485): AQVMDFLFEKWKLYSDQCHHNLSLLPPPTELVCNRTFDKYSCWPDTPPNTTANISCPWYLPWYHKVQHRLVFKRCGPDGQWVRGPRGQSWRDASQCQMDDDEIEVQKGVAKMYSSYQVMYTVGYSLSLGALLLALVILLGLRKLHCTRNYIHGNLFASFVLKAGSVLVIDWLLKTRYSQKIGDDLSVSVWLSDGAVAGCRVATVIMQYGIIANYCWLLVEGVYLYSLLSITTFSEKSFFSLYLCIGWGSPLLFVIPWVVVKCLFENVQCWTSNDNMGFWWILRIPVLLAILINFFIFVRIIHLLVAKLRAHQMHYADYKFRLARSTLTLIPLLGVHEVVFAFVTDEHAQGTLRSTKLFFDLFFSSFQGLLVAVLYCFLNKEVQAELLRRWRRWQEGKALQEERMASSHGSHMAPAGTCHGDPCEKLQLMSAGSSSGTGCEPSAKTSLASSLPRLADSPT

Binder | EC50 GLP-1R (murine insulinoma cells) [nM] (cAMP) [1] | EC50 hGCGR CHO-K1 [nM] (cAMP) [2] | EC50 hGLP-1R CHO-K1 [nM] (cAMP) [3] | Ratio GLP-1/Glucagon (EC50 hGLP-1R / EC50 hGCGR) [3] [ratio] | EC50 GLP-1R Rat hepat. [nM] (inhibition of glycogen synthesis) [4]
H-H[Aib]QGTFTSDYSKYLESK([γGlu-Palmitoyl])AAHDFVEWLESA-NH2 (SMILES CCCCCCCCCCCCCCCC(=O)N[C@@H](CCC(=O)NCCCC[C@H](NC(=O)[C@H](CO)NC(=O)[C@H](CCC(=O)O)NC(=O)[C@H](CC(C)C)NC(=O)[C@H](Cc1ccc(O)cc1)NC(=O)[C@H](CCCCN)NC(=O)[C@H](CO)NC(=O)[C@H](Cc1ccc(O)cc1)NC(=O)[C@H](CC(=O)O)NC(=O)[C@H](CO)NC(=O)[C@@H](NC(=O)[C@H](Cc1ccccc1)NC(=O)[C@@H](NC(=O)CNC(=O)[C@H](CCC(N)=O)NC(=O)C(C)(C)NC(=O)[C@@H](N)Cc1c[nH]cn1)[C@@H](C)O)[C@@H](C)O)C(=O)N[C@@H](C)C(=O)N[C@@H](C)C(=O)N[C@@H](Cc1c[nH]cn1)C(=O)N[C@@H](CC(=O)O)C(=O)N[C@@H](Cc1ccccc1)C(=O)N[C@H](C(=O)N[C@@H](CCC(=O)O)C(=O)N[C@@H](Cc1c[nH]c2ccccc12)C(=O)N[C@@H](CC(C)C)C(=O)N[C@@H](CCC(=O)O)C(=O)N[C@@H](CO)C(=O)N[C@@H](C)C(N)=O)C(C)C)C(=O)O) [Compound 23] | 0.31 | 0.25 | 0.13 | 0.52 | 1.32
H-H[Aib]QGTFTSDYSKYLESK([γGlu-Palmitoyl])AAEDFIEWLESA-NH2 (SMILES CCCCCCCCCCCCCCCC(=O)N[C@@H](CCC(=O)NCCCC[C@H](NC(=O)[C@H](CO)NC(=O)[C@H](CCC(=O)O)NC(=O)[C@H](CC(C)C)NC(=O)[C@H](Cc1ccc(O)cc1)NC(=O)[C@H](CCCCN)NC(=O)[C@H](CO)NC(=O)[C@H](Cc1ccc(O)cc1)NC(=O)[C@H](CC(=O)O)NC(=O)[C@H](CO)NC(=O)[C@@H](NC(=O)[C@H](Cc1ccccc1)NC(=O)[C@@H](NC(=O)CNC(=O)[C@H](CCC(N)=O)NC(=O)C(C)(C)NC(=O)[C@@H](N)Cc1c[nH]cn1)[C@@H](C)O)[C@@H](C)O)C(=O)N[C@@H](C)C(=O)N[C@@H](C)C(=O)N[C@@H](CCC(=O)O)C(=O)N[C@@H](CC(=O)O)C(=O)N[C@@H](Cc1ccccc1)C(=O)N[C@H](C(=O)N[C@@H](CCC(=O)O)C(=O)N[C@@H](Cc1c[nH]c2ccccc12)C(=O)N[C@@H](CC(C)C)C(=O)N[C@@H](CCC(=O)O)C(=O)N[C@@H](CO)C(=O)N[C@@H](C)C(N)=O)[C@@H](C)CC)C(=O)O) [Compound 21] | 0.3 | 1.32 | 0.12 | 0.09 | 3.4
HXQGTFTSDYSKYLEEXAAKDFIEWLESA (Aib at position 2; Lys 17 K(Hexadecanoyl-isoGlu); C-terminal amide (-NH2)) [Compound 20] | 0.27 | 0.68 | 0.23 | 0.34 | 0.39
H-H[Aib]QGTFTSDYSKYLESK([γGlu-Palmitoyl])AAEDFVEWLESA-NH2 (SMILES CCCCCCCCCCCCCCCC(=O)N[C@@H](CCC(=O)NCCCC[C@H](NC(=O)[C@H](CO)NC(=O)[C@H](CCC(=O)O)NC(=O)[C@H](CC(C)C)NC(=O)[C@H](Cc1ccc(O)cc1)NC(=O)[C@H](CCCCN)NC(=O)[C@H](CO)NC(=O)[C@H](Cc1ccc(O)cc1)NC(=O)[C@H](CC(=O)O)NC(=O)[C@H](CO)NC(=O)[C@@H](NC(=O)[C@H](Cc1ccccc1)NC(=O)[C@@H](NC(=O)CNC(=O)[C@H](CCC(N)=O)NC(=O)C(C)(C)NC(=O)[C@@H](N)Cc1c[nH]cn1)[C@@H](C)O)[C@@H](C)O)C(=O)N[C@@H](C)C(=O)N[C@@H](C)C(=O)N[C@@H](CCC(=O)O)C(=O)N[C@@H](CC(=O)O)C(=O)N[C@@H](Cc1ccccc1)C(=O)N[C@H](C(=O)N[C@@H](CCC(=O)O)C(=O)N[C@@H](Cc1c[nH]c2ccccc12)C(=O)N[C@@H](CC(C)C)C(=O)N[C@@H](CCC(=O)O)C(=O)N[C@@H](CO)C(=O)N[C@@H](C)C(N)=O)C(C)C)C(=O)O) [Compound 24] | 0.33 | 0.92 | 0.11 | 0.12 | 6.15
H-HSQGTFTSDYSKYLEEK([γGlu-Palmitoyl])AAKDFIEWLESA-NH2 (SMILES CCCCCCCCCCCCCCCC(=O)N[C@@H](CCC(=O)NCCCC[C@H](NC(=O)[C@H](CCC(=O)O)NC(=O)[C@H](CCC(=O)O)NC(=O)[C@H](CC(C)C)NC(=O)[C@H](Cc1ccc(O)cc1)NC(=O)[C@H](CCCCN)NC(=O)[C@H](CO)NC(=O)[C@H](Cc1ccc(O)cc1)NC(=O)[C@H](CC(=O)O)NC(=O)[C@H](CO)NC(=O)[C@@H](NC(=O)[C@H](Cc1ccccc1)NC(=O)[C@@H](NC(=O)CNC(=O)[C@H](CCC(N)=O)NC(=O)[C@H](CO)NC(=O)[C@@H](N)Cc1c[nH]cn1)[C@@H](C)O)[C@@H](C)O)C(=O)N[C@@H](C)C(=O)N[C@@H](C)C(=O)N[C@@H](CCCCN)C(=O)N[C@@H](CC(=O)O)C(=O)N[C@@H](Cc1ccccc1)C(=O)N[C@H](C(=O)N[C@@H](CCC(=O)O)C(=O)N[C@@H](Cc1c[nH]c2ccccc12)C(=O)N[C@@H](CC(C)C)C(=O)N[C@@H](CCC(=O)O)C(=O)N[C@@H](CO)C(=O)N[C@@H](C)C(N)=O)[C@@H](C)CC)C(=O)O) [Compound 22] | 0.35 | 0.1 | 0.24 | 2.4 | 0.28
H-H[Aib]HGTFTSDYSKYLEEK([γGlu-Palmitoyl])AAHEFVEWLESA-NH2 (SMILES CCCCCCCCCCCCCCCC(=O)N[C@@H](CCC(=O)NCCCC[C@H](NC(=O)[C@H](CCC(=O)O)NC(=O)[C@H](CCC(=O)O)NC(=O)[C@H](CC(C)C)NC(=O)[C@H](Cc1ccc(O)cc1)NC(=O)[C@H](CCCCN)NC(=O)[C@H](CO)NC(=O)[C@H](Cc1ccc(O)cc1)NC(=O)[C@H](CC(=O)O)NC(=O)[C@H](CO)NC(=O)[C@@H](NC(=O)[C@H](Cc1ccccc1)NC(=O)[C@@H](NC(=O)CNC(=O)[C@H](Cc1c[nH]cn1)NC(=O)C(C)(C)NC(=O)[C@@H](N)Cc1c[nH]cn1)[C@@H](C)O)[C@@H](C)O)C(=O)N[C@@H](C)C(=O)N[C@@H](C)C(=O)N[C@@H](Cc1c[nH]cn1)C(=O)N[C@@H](CCC(=O)O)C(=O)N[C@@H](Cc1ccccc1)C(=O)N[C@H](C(=O)N[C@@H](CCC(=O)O)C(=O)N[C@@H](Cc1c[nH]c2ccccc12)C(=O)N[C@@H](CC(C)C)C(=O)N[C@@H](CCC(=O)O)C(=O)N[C@@H](CO)C(=O)N[C@@H](C)C(N)=O)C(C)C)C(=O)O) [Compound 19] | 0.33 | 0.08 | 0.27 | 3.38 | 0.06
